In publication PMC11574045 (2024):

Target: GLUP (macrocyclic version of glup) (disulfide-cyclization and C-terminal amidation (results); head-to-side-chain cross-linking with 1,3-dibromomethylbenzene (methods))

- Kd: 4.55 µM
B1: TEAD4, purified recombinant protein (natural protein)
chain: PAPPWQGRSVASSKLWMLEFSAFLEQQQDPDTYNKHLFVHIGQSSPSYSDPYLEAVDIRQIYDKFPEKKGGLKDLFERGPSNAFFLVKFWADLNTNIEDEGSSFYGVSSQYESPENMIITCSTKVCSFGKQVVEKVETEYARYENGHYSYRIHRSPLCEYMINFIHKLKHLPEKYMMNSVLENFTILQVVTNRDTQETLLCIAYVFEVSASEHGAQHHIYRLVKE
